Data published in patent US20240358834A1 (University of Pennsylvania, published 2024).

T1: human CD19 protein with a biotinylated AviTag (Acrobiosystems) (human, UniProt P15391 20-291, biotinylated AviTag)
T1 construct: Captured on streptavidin-coated microplate wells; also called biotinylated-AviTag-CD19; hCD19; not shown: AviTag
T1 sequence (looked up): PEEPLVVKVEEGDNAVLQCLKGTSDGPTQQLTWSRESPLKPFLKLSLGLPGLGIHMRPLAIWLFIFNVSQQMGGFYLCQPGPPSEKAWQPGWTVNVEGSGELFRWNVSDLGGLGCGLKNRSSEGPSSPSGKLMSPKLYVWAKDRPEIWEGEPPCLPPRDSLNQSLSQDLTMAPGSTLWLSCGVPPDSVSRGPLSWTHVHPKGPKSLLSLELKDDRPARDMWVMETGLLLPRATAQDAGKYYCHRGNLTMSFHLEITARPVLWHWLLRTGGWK


Molecular target: T1, human CD19 protein with a biotinylated …
Experiment: phage ELISA, biotinylated AviTag CD19 on streptavidin wells; signal ratio to FMC63 standard
Description: To identify unique human CD19-binding monoclonal scFv from the panned libraries, individual phage antibody clones were expanded, assessed for binding to CD19 by ELISA, and subjected to nucleotide sequencing to identify those clones that were unique. A total of 84 scFvs were randomly selected from the panned libraries (70 from P3 and 14 from P4).

| Binder | ELISA hCD19 (ratio FMC63) |
| --- | --- |
| scFv 7 (scFv, Canine scFv (VL-linker-VH); also called scFv_07; P3-47) scFv: SYELTQPPSMSAALGQRVTISCTGSNTNIGSGYDVQWYQQVPGKSPTPLIYGNTNRPSGVPVRFSGSKSGNTATLTITGIQAEDEADYYCQSYDDNFDGHHVFGSGTQLTVLGGGSSRSSSSGGGGSGGGGEVQLVESGGDLVKPAGSLRLSCVASGFTFSNYGMNWVRQAPGKGLQWVAGINSGGSTTTYADVVKGRFTISRDNAKNTLYLQMNSLGAEDTAVYYCARVDYSSSWLVDYWGQGTLVTVSSASTTAPSVTSGQAGQHHHHHHGAYPYDVPDYAS | 0.83 ratio to FMC63 |
| scFv 8 (scFv, Canine scFv (VL-linker-VH); also called scFv_08; P3-16) scFv: QSVLTQPASVSGSLGQKVTISCTGSRSNIGANYVGWYQQVPGIGPRTVIFGYNYRPSGVPDRFSSSKSGNSATLTISGLQAEDEAEYYCSSWDDSLRGTVFGSGTQLTVLGGGSSRSSSSGDGGSGGGGEVQLVESGGDLVKPGESLRLSCVASGFTFSSYGMSWVRQSPGKGLQWVADISYGGGTYYADAVKGRFTISRDNARNTVYLQMNSLRAEDTAVYYCASQWGDWGHFEYWGQGTLVTVSSASTTAPSVTSGQAGQHHHHHHGAYPYDVPDYAS | 0.41 ratio to FMC63 |
| scFv 5 (scFv, Canine scFv (VL-linker-VH); also called scFv_05; P3-14) scFv: QPVLTQPPSVSGSLGQRVTISCSGSTNTIGVVGANWYQQLPGKSPKLLVYSDGVRPSGVPDRFSGSRSANSDTLTITGLQAEDEADYYCQSFDSTHNAIVFGGGTHLTVLGGGSSRSSSSGGGGSGGGGEVQLVETGGDLVKPAGSLRLSCAASGFPFSGYSMTWVRQAPEKGLQLVAGINSDGSHTYYTDDVKGRFTISRDNTKYILYLQMNSLRAEDTAMYYCGSHSWGNFHYWGQGTLVTVSSESPSPPNLTSGQAGQHHHHHHGAYPYDVPDYAS | 0.48 ratio to FMC63 |

More lines, now with the values ahead:

| ELISA hCD19 (ratio FMC63) | Binder |
| --- | --- |
| 0.71 ratio to FMC63 | scFv 9 (scFv, Canine scFv (VL-linker-VH); also called scFv_09; P3-41) scFv: QPVLTQPPSVSAALGQRVTLSCTGSKTNIGSGYDVQWYQQFPGKSPKTIIYGNSNRFSGVPARFSGSKSGSIATLTITGIQAEDEADYYCQSFDDNVDGYVFGSGTQLTILGGGSSRSSSSGGGGSGGGGEVQLVESGGDLVKPGGSLRLSCVASGFTFSSDSIHWVRQAPGKGLQWVAYINSGGSTTYYADAVKGRFTISRDNARNTVYLKMNSLRAEDTAVYYCAKDSGFGSWYLESWGQGTLVTVSPASTTAPSVTSGQAGQHHHHHHGAYPYDVPDYAS |
| 0.57 ratio to FMC63 | scFv 43 (scFv, Canine scFv (VL-linker-VH); also called P3-02; P3-19) scFv: DIVMTQNPLSLAVTPGELATISCRASQSLLHSDGKSYLNWYLQKPGQTPRPLIYEASRRFSGVSDRFNGSGSGTDFTLKISRVEAEDVGVYYCQQGLHFPPTFGAGTKVELKGGSSRSSSSGGGGSGGGGEVQLVESGGDLVKPGGSLRLSCAASGFTFTDYDMSWVRQAPGKGLQWVAAISYDGSSTYYTDAVKGRFTISRDNARNTLYLQMSSLRAEDTAMYYCVVSNMNLWGHGTSVFVSSASTTAPSVTSGQAGQHHHHHHGAYPYDVPDYAS |
| 0.14 ratio to FMC63 | scFv 42 (scFv, Canine scFv (VL-linker-VH); also called P3-13) scFv: QSVLTQPTSVSGSLGQRVTISCSGSTNDIGIIGAAWYQQLPGKAPKLLLYSNKNRPSGVPDRFSGSNSGISATLTITGLQAEDEADYYCQSVDPALHTYVFGSGTQLTILGGGSSRSSSSGGGGSGGGGEVQLVEIGGDLVKPEGSLRLSCVVSGFTFSGYDMNWVRQAPGKGLQWVAYISSDGRRTVYTDAVKGRFTISRDNAKNTLYLQMNSLKSEDTAVYYCVKGGWLDFWGQGTLVTVSSESPSPPNLTSGQAGQHHHHHHGAYPYDVPDYAS |
